Values belong to the substance of their own block, whether it stands above or below them.
Legend:
[1] = target: Soluble FcγRIIb extracellular domain with C-terminal 10×His tag (UniProt P31994); experiment: SPR (Protocol 2); ratio of FcγRIIb fold to FcγRIIaR fold over wild-type
[2] = target: Soluble FcγRIIaR extracellular domain with C-terminal 10×His tag (UniProt P12318); experiment: SPR (Protocol 2): one-armed antibody captured on immobilised HER2, soluble receptor as analyte; fold over wild-type
Chain of Soluble FcγRIIaR extracellular domain with C-terminal 10×His tag (P12318 other isoform, or with tags, fused parts or gaps): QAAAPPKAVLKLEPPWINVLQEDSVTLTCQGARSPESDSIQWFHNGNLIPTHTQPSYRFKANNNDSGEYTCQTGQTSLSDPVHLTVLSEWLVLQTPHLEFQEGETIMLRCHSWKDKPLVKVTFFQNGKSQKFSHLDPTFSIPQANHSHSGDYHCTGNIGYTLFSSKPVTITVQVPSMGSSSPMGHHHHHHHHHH

[3] = target: Soluble FcγRIIb extracellular domain with C-terminal 10×His tag (UniProt P31994); experiment: as above
FcγRIIaR [4] = target: FcγRIIaR (UniProt P12318); experiment: SPR; trastuzumab FSA variant against FSA WT v21653
Chain of FcγRIIaR (P12318 34-217): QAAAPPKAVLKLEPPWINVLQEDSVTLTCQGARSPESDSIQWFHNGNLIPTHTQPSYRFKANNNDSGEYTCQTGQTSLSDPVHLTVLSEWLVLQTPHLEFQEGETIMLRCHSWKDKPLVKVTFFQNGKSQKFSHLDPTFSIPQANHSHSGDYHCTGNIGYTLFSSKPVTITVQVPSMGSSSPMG

FcγRIIb [5] = target: FcγRIIb (UniProt P31994); experiment: SPR; trastuzumab FSA variant against FSA WT v21653
Target sequence in this assay (P31994 43-217): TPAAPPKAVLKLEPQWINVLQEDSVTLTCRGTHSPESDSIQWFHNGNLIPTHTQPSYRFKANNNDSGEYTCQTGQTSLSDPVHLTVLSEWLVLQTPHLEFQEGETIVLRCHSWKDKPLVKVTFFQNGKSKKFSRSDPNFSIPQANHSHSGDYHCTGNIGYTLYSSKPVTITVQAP

C1q (human) [6] = target: C1q (human) (UniProt P02745); experiment: ELISA; antibody coated, human C1q added, signal as % of WT
Chain of C1q (human) (P02745 23-245 limits assumed, chain 1 of 3): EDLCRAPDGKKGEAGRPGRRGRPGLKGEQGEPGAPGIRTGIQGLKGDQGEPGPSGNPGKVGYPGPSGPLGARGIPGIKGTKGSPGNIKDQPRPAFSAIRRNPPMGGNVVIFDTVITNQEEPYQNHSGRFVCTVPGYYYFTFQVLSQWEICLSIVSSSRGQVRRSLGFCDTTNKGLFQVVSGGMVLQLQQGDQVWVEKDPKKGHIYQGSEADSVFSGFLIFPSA
Chain of C1q (human) (P02746 28-253 limits assumed, chain 2 of 3, further chain): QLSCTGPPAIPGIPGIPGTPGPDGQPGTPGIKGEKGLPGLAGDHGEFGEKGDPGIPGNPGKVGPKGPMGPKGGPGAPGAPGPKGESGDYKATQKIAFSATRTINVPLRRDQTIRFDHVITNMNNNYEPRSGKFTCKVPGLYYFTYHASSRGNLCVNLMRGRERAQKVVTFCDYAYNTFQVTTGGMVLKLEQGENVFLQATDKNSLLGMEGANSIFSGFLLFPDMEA
Chain of C1q (human) (P02747 29-245 limits assumed, chain 3 of 3, further chain): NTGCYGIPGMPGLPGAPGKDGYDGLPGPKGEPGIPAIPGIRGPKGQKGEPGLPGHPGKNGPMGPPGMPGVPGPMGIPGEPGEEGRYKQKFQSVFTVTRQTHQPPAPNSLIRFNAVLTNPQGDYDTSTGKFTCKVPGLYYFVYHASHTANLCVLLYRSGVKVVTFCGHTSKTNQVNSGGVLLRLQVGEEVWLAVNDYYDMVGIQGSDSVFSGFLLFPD

FcγRIIb [7] = target: FcγRIIb (UniProt P31994); experiment: SPR; ratio of IIb-fold to IIaR-fold, FcγRIIaR as comparison receptor
Target sequence in this assay (P31994 43-217): as the sequence (P31994 43-217) above

C1q (human) [8] = target: C1q (human) (UniProt P02745); experiment: C1q ELISA, antibody coated
C1q (human) [9] = target: C1q (human) (UniProt P02745); experiment: cell-based or functional assay
FcγRIIb [10] = target: FcγRIIb (UniProt P31994); experiment: SPR (Protocol 1); FcγRIIb ratio over FcγRIIaR ratio
Target sequence in this assay (P31994 43-217 limits assumed): as the sequence (P31994 43-217) above

FcγRIIaR [11] = target: FcγRIIaR (UniProt P12318); experiment: SPR (Protocol 1), one-armed antibody captured on HER2, receptor as analyte; ratio to wild-type
FcγRIIb [12] = target: FcγRIIb (UniProt P31994); experiment: as above
Target sequence in this assay (P31994 43-217 limits assumed): as the sequence (P31994 43-217) above

FcγRIIb [13] = target: FcγRIIb (UniProt P31994); experiment: SPR (Protocol 1); IIb-Fold over IIaR-Fold
Target sequence in this assay (P31994 43-217 limits assumed): as the sequence (P31994 43-217) above

FcγRIIaR [14] = target: FcγRIIaR (UniProt P12318); experiment: SPR (Protocol 1), one-armed antibody captured on HER2, receptor as analyte; fold over wild-type
FcγRIIb [15] = target: FcγRIIb (UniProt P31994); experiment: as above
Target sequence in this assay (P31994 43-217 limits assumed): as the sequence (P31994 43-217) above

Chain of Soluble FcγRIIb extracellular domain with C-terminal 10×His tag (P31994 other isoform, or with tags, fused parts or gaps): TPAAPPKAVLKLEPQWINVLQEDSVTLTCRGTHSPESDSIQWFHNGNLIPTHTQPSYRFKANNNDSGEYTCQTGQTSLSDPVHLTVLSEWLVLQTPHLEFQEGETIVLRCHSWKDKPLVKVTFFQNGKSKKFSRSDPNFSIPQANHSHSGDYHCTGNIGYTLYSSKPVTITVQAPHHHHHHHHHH

Substance: Variant 22117 (one-armed trastuzumab antibody, heterodimeric IgG1 Fc; A: L234D_G236N_H268Q_K274Q_A327G_A330K_P331S / B: L234F_G236D_S239D_V266L_S267A_H268D_K274Q_A327G_A330S_P331S)
- IIb/IIaR Selectivity (IIb-Fold/IIaR-Fold) [1]: 12.7
- IIaR-fold (fold change in affinity over wild-type) [2]: 2.3 fold
- IIb-fold (fold change in affinity over wild-type) [3]: 28.7 fold

Substance: Variant 22119 (one-armed trastuzumab antibody, heterodimeric IgG1 Fc; A: L234F_G236N_H268Q_K274Q_A327G_A330K_P331S / B: L234F_G236D_S239D_V266L_S267I_H268D_K274Q_A327G_A330S_P331S)
- IIb/IIaR Selectivity (IIb-Fold/IIaR-Fold) [1]: 7.9
- IIaR-fold (fold change in affinity over wild-type) [2]: 0.8 fold
- IIb-fold (fold change in affinity over wild-type) [3]: 6.2 fold

Substance: Variant 22131 (one-armed trastuzumab antibody, heterodimeric IgG1 Fc; A: L234F_G236N_S267A / B: G236D_S239D_V266L_S267A_H268D)
- IIb/IIaR Selectivity (IIb-Fold/IIaR-Fold) [1]: 10.4
- IIaR-fold (fold change in affinity over wild-type) [2]: 4.3 fold
- IIb-fold (fold change in affinity over wild-type) [3]: 45.1 fold

Substance: Variant 32266 (trastuzumab FSA; chain A S239G_strat1, chain B G330*K_strat1) (antibody)
- IIaR-fold (fold change in affinity over wild-type) (FcγRIIaR [4]): 30 fold over WT
- IIb-fold (fold change in affinity over wild-type) (FcγRIIb [5]): 1150 fold over WT
- C1q Binding (% WT) (C1q (human) [6]): 219 % WT
- IIb Selectivity (IIb-Fold/IIaR-Fold) (FcγRIIb [7]): 38

Substance: Variant 32267 (trastuzumab FSA; chain A S239H_strat1, chain B G330*K_strat1) (antibody)
- IIaR-fold (fold change in affinity over wild-type) (FcγRIIaR [4]): 25 fold over WT
- IIb-fold (fold change in affinity over wild-type) (FcγRIIb [5]): 803 fold over WT
- C1q Binding (% WT) (C1q (human) [6]): 201 % WT
- IIb Selectivity (IIb-Fold/IIaR-Fold) (FcγRIIb [7]): 33

Substance: Variant 32270 (trastuzumab FSA; chain A E272Y_strat2, chain B G237L_strat2) (antibody)
- IIaR-fold (fold change in affinity over wild-type) (FcγRIIaR [4]): 11 fold over WT
- IIb-fold (fold change in affinity over wild-type) (FcγRIIb [5]): 196 fold over WT
- C1q Binding (% WT) (C1q (human) [6]): -1 % WT
- IIb Selectivity (IIb-Fold/IIaR-Fold) (FcγRIIb [7]): 18

Substance: Variant 32271 (trastuzumab FSA; chain A G237L_strat2, chain B G237L_strat2) (antibody)
- IIaR-fold (fold change in affinity over wild-type) (FcγRIIaR [4]): 10 fold over WT
- IIb-fold (fold change in affinity over wild-type) (FcγRIIb [5]): 251 fold over WT
- C1q Binding (% WT) (C1q (human) [6]): 3 % WT
- IIb Selectivity (IIb-Fold/IIaR-Fold) (FcγRIIb [7]): 26

Substance: Variant 32276 (trastuzumab FSA; chain A P329V_strat2, chain B G237L_strat2) (antibody)
- IIaR-fold (fold change in affinity over wild-type) (FcγRIIaR [4]): 4 fold over WT
- IIb-fold (fold change in affinity over wild-type) (FcγRIIb [5]): 94 fold over WT
- C1q Binding (% WT) (C1q (human) [6]): 3 % WT
- IIb Selectivity (IIb-Fold/IIaR-Fold) (FcγRIIb [7]): 24

Substance: Variant 32278 (trastuzumab FSA; chain A S267A_strat2, chain B G237L_strat2) (antibody)
- IIaR-fold (fold change in affinity over wild-type) (FcγRIIaR [4]): 9 fold over WT
- IIb-fold (fold change in affinity over wild-type) (FcγRIIb [5]): 155 fold over WT
- C1q Binding (% WT) (C1q (human) [6]): 1 % WT
- IIb Selectivity (IIb-Fold/IIaR-Fold) (FcγRIIb [7]): 17

Substance: anti-CD19 (4G7) full-size antibody, wild-type CH2 (variant 21653)
- EC50 (C1q (human) [8]): 0.31 nM

Substance: anti-CD40 (Chi Lob 7/4) full-size antibody, Fc negative variant (L234A_L235A_D265S)
- C1q - Variant Binding Relative to WT (%) (C1q (human) [8]): 0%

Substance: anti-CD40 (Chi Lob 7/4) full-size antibody, control v12 (symmetrical E233D_G237D_P238D_H268D_P271G_A330R)
- C1q - Variant Binding Relative to WT (%) (C1q (human) [8]): 0%

Substance: anti-HER2 (trastuzumab) full-size antibody, wild-type CH2 (variant 21653)
- C1q Concentration at Onset of Binding (C1q (human) [8]): 0.16 nM
- EC50 (C1q (human) [8]): 0.88 nM

Substance: variant 16490, one-armed trastuzumab antibody (Scaffold 2), G236D in both chains
- IIb/IIaR Selectivity (FcγRIIb [13]): 2.75
- Selectivity IIb/IIaR (FcγRIIb [10]): 2.7
- Ka,mut/Ka,WT (FcγRIIaR [11]): 0.81
- Ka,mut/Ka,WT (FcγRIIb [12]): 2.22
- IIaR-Fold (fold affinity over wild-type) (FcγRIIaR [14]): 0.81 fold
- IIb-Fold (fold affinity over wild-type) (FcγRIIb [15]): 2.22 fold

The remaining lines, values ahead:

- IIb/IIaR Selectivity (IIb-Fold/IIaR-Fold) [1]: 14
- IIaR-fold (fold change in affinity over wild-type) [2]: 1.8 fold
- IIb-fold (fold change in affinity over wild-type) [3]: 25.4 fold
Substance: Variant 19540, Lead 3 (one-armed trastuzumab antibody, heterodimeric IgG1 Fc; A: L234D_G236N_S267A / B: G236D_S239D_V266L_S267A_H268D)

- IIb/IIaR Selectivity (IIb-Fold/IIaR-Fold) [1]: 12
- IIaR-fold (fold change in affinity over wild-type) [2]: 4.1 fold
- IIb-fold (fold change in affinity over wild-type) [3]: 49.5 fold
Substance: Variant 19585, Lead 2 (one-armed trastuzumab antibody, heterodimeric IgG1 Fc; A: L234F_G236N_H268Q_K274Q_A327G_A330K_P331S / B: L234F_G236D_S239D_V266L_S267A_H268D_K274Q_A327G_A330S_P331S)

- IIb/IIaR Selectivity (IIb-Fold/IIaR-Fold) [1]: 5.9
- IIaR-fold (fold change in affinity over wild-type) [2]: 0.4 fold
- IIb-fold (fold change in affinity over wild-type) [3]: 2.6 fold
Substance: Variant 22115 (one-armed trastuzumab antibody, heterodimeric IgG1 Fc; A: L234D_G236N_S267A_H268Q_K274Q_A327G_A330K_P331S / B: G236D_S239D_V266L_S267I_H268D_L234F_K274Q_A327G_A330K_P331S)

- IIb/IIaR Selectivity (IIb-Fold/IIaR-Fold) [1]: 12.1
- IIaR-fold (fold change in affinity over wild-type) [2]: 2.6 fold
- IIb-fold (fold change in affinity over wild-type) [3]: 31.9 fold
Substance: Variant 22116 (one-armed trastuzumab antibody, heterodimeric IgG1 Fc; A: L234D_G236N_S267A_K326D / B: G236D_S239D_V266L_S267A_H268D_K326D)

- IIb/IIaR Selectivity (IIb-Fold/IIaR-Fold) [1]: 8.8
- IIaR-fold (fold change in affinity over wild-type) [2]: 9.7 fold
- IIb-fold (fold change in affinity over wild-type) [3]: 85.8 fold
Substance: Variant 22120 (one-armed trastuzumab antibody, heterodimeric IgG1 Fc; A: L234F_G236N_H268Q_K274Q_A327G_A330K_P331S_K326D / B: L234F_G236D_S239D_V266L_S267A_H268D_K274Q_A327G_A330S_P331S_K326D)

- IIaR-fold (fold change in affinity over wild-type) (FcγRIIaR [4]): 9 fold over WT
- IIb-fold (fold change in affinity over wild-type) (FcγRIIb [5]): 164 fold over WT
- C1q Binding (% WT) (C1q (human) [6]): 3 % WT
- IIb Selectivity (IIb-Fold/IIaR-Fold) (FcγRIIb [7]): 18
Substance: Variant 32272 (trastuzumab FSA; chain A K330T_strat2, chain B G237L_strat2) (antibody)

- IIaR-fold (fold change in affinity over wild-type) (FcγRIIaR [4]): 4 fold over WT
- IIb-fold (fold change in affinity over wild-type) (FcγRIIb [5]): 95 fold over WT
- C1q Binding (% WT) (C1q (human) [6]): 2 % WT
- IIb Selectivity (IIb-Fold/IIaR-Fold) (FcγRIIb [7]): 26
Substance: Variant 32274 (trastuzumab FSA; chain A P329A_strat2, chain B G237L_strat2) (antibody)

- IIaR-fold (fold change in affinity over wild-type) (FcγRIIaR [4]): 3 fold over WT
- IIb-fold (fold change in affinity over wild-type) (FcγRIIb [5]): 53 fold over WT
- C1q Binding (% WT) (C1q (human) [6]): 1 % WT
- IIb Selectivity (IIb-Fold/IIaR-Fold) (FcγRIIb [7]): 19
Substance: Variant 32279 (trastuzumab FSA; chain A S267K_strat2, chain B G237L_strat2) (antibody)

- C1q - Variant Binding Relative to WT (%) (C1q (human) [8]): 0.61%
- C1q Concentration at Onset of Binding (C1q (human) [8]): 29.6 nM
Substance: anti-CD19 (4G7) full-size antibody, Fc negative variant (L234A_L235A_D265S)

- EC50 (C1q (human) [8]): 0.36 nM
Substance: anti-CD19 (4G7) full-size antibody, control SELF (S267E_L328F)

- C1q - Variant Binding Relative to WT (%) (C1q (human) [8]): 6.72%
- C1q Concentration at Onset of Binding (C1q (human) [8]): 2.84 nM
Substance: anti-CD19 (4G7) full-size antibody, control v12 (symmetrical E233D_G237D_P238D_H268D_P271G_A330R)

- C1q - Variant Binding Relative to WT (%) (C1q (human) [8]): 50.4%
- C1q Concentration at Onset of Binding (C1q (human) [8]): 0.73 nM
- EC50 (C1q (human) [8]): 4.73 nM
Substance: anti-CD40 (Chi Lob 7/4) full-size antibody, control SELF (S267E_L328F)

- C1q Concentration at Onset of Binding (C1q (human) [8]): 0.41 nM
- EC50 (C1q (human) [8]): 1.49 nM
Substance: anti-CD40 (Chi Lob 7/4) full-size antibody, wild-type CH2 (variant 21653)

- CDC assay on Ramos cells: Lysis (%) Mean, at highest test antibody concentration (C1q (human) [9]): 5.13%
Substance: anti-CD40 full-size antibody (Chi Lob 7/4 Fab) with Fc negative variant (L234A, L235A, D265S)

- CDC assay on Ramos cells: Lysis (%) Mean, at highest test antibody concentration (C1q (human) [9]): 78.2%
- CDC assay on Ramos cells: Normalized Potency Mean (C1q (human) [9]): 93.6 % of WT
- CDC assay on Ramos cells: Potency (ng/mL) Mean, antibody concentration above which >20% cell lysis was achieved (C1q (human) [9]): 166 ng/mL
Substance: anti-CD40 full-size antibody (Chi Lob 7/4 Fab) with control Fc SELF (S267E_L328F)

- CDC assay on Ramos cells: Lysis (%) Mean, at highest test antibody concentration (C1q (human) [9]): 7.28%
Substance: anti-CD40 full-size antibody (Chi Lob 7/4 Fab) with control Fc v12 (symmetrical E233D_G237D_P238D_H268D_P271G_A330R)

- CDC assay on Ramos cells: Lysis (%) Mean, at highest test antibody concentration (C1q (human) [9]): 77.8%
- CDC assay on Ramos cells: Potency (ng/mL) Mean, antibody concentration above which >20% cell lysis was achieved (C1q (human) [9]): 67.7 ng/mL
Substance: anti-CD40 full-size antibody (Chi Lob 7/4 Fab) with wild-type CH2, v21653

- Selectivity IIb/IIaR (FcγRIIb [10]): 2.2
- Ka,mut/Ka,WT (FcγRIIaR [11]): 1.03
- Ka,mut/Ka,WT (FcγRIIb [12]): 2.24
Substance: one-armed trastuzumab antibody (Scaffold 2), chain A L235D, chain B H268Q_K274Q

From patent US20240294646A1
